Laboratory results as given in patent US20260083855A1 (Hoffmann-La Roche, published 2026).

Key:
Test in all cases: cell-based or functional assay
[1] = target: T1, human PD-1 on activated CD4 T cells (human, UniProt Q15116 25-288)
[2] = target: T2, human LAG-3 on activated CD4 T cells (human, UniProt P18627 23-525)
T2 sequence (looked up): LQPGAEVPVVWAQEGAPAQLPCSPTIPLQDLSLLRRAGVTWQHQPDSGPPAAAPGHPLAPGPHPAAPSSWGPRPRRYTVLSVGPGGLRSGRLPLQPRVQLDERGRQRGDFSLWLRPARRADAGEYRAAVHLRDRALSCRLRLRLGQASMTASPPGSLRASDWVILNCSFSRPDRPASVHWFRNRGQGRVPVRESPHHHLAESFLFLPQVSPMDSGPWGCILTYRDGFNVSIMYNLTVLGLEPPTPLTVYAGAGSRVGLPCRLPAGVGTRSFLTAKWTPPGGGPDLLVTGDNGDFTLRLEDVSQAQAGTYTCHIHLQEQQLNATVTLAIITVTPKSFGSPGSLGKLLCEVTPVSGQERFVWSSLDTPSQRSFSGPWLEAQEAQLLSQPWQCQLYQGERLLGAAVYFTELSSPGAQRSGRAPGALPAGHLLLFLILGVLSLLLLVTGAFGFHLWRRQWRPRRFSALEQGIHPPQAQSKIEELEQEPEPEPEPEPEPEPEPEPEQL

[3] = target: T3, IL-2R on human cells (activated CD4 T cells, PBMC subsets, NK92) (human, UniProt P14784 27-551; P31785 23-369)
T3 sequence (looked up) 1: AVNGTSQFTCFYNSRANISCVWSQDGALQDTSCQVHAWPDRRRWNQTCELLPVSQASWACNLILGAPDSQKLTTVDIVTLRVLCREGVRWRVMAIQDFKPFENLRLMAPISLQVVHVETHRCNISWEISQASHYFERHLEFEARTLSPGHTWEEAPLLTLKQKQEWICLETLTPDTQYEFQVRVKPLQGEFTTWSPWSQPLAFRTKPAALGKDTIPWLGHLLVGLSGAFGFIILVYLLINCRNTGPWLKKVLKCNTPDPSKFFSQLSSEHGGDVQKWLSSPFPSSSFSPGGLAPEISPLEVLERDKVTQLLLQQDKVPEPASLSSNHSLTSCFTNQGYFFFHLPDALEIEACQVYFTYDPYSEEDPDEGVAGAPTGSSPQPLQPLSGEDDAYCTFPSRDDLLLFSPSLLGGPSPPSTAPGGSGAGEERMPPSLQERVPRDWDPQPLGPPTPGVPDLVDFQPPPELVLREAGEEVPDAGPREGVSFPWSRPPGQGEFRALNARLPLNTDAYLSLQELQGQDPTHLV
T3 sequence (looked up) 2: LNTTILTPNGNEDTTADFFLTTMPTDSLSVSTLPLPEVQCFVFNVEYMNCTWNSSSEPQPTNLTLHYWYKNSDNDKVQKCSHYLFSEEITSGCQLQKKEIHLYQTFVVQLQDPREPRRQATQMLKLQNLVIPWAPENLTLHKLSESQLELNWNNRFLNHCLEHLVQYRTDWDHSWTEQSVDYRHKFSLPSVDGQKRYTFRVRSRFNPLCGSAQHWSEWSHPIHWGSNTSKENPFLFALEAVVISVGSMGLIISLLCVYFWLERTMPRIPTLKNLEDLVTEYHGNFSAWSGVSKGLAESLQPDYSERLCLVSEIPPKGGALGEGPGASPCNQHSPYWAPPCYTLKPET

[4] = target: T1, human PD-1 on activated CD4 T cells; remark: listed apart in the source
[5] = target: T2, human LAG-3 on activated CD4 T cells; remark: listed apart in the source
[6] = target: T3, IL-2R on human cells (activated CD4 T …); remark: listed apart in the source
[7] = target: T1, human PD-1 on activated CD4 T cells; remark: listed apart in the source

T1 sequence (Q15116 25-288 limits assumed): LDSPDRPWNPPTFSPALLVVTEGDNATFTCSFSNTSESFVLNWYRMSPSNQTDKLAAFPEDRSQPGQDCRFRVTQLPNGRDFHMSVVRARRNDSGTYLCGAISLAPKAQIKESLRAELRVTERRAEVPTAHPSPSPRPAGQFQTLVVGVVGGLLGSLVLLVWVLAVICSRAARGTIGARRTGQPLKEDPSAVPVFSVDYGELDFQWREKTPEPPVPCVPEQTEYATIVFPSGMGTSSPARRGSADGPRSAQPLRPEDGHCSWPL

Binder | STAT5-P potency on PD-1+, LAG-3+ T cells against PD1-IL2v [1] | STAT5-P potency on PD-1+, LAG-3+ T cells against PD1-IL2v [2] | Potency reduction vs PD1-IL2v on PD-1+ LAG-3+ T cells [3] | Cis-delivery: fold increase in EC50, EC50 [PD1/LAG-3 bl.]/EC50 [PD1+/LAG-3+] [4] | Cis-delivery: fold increase in EC50, EC50 [PD1/LAG-3 bl.]/EC50 [PD1+/LAG-3+] [5] | Percentage of internalization (0.6 nM, activated CD4 T cells, 3 h at 37 C) [6] | Percentage of internalization (0.6 nM, activated CD4 T cells, 3 h at 37 C) [7]
PD1-LAG3-IL2v (P1AF4801) (bispecific antibody, human IgG1, kappa, L234A L235A) light 1: EVQLLESGGGLVQPGGSLRLSCAASGFSFSSYTMSWVRQAPGKGLEWVATISGGGRDIYYPDSVKGRFTISRDNSKNTLYLQMNSLRAEDTAVYYCVLLTGRVYFALDSWGQGTLVTVSSASVAAPSVFIFPPSDEQLKSGTASVVCLLNNFYPREAKVQWKVDNALQSGNSQESVTEQDSKDSTYSLSSTLTLSKADYEKHKVYACEVTHQGLSSPVTKSFNRGEC light 2: not shown heavy 1: EVQLLESGGGLVQPGGSLRLSCAASGFIFDDYTMNWVRQAPGKGLEWVAVISWDGGGTYYTDSVKGRFTISRDDFKNTLYLQMNSLRAEDTAVYYCAKGLTDTTLYGSDYWGQGTLVTVSSASTKGPSVFPLAPSSKSTSGGTAALGCLVEDYFPEPVTVSWNSGALTSGVHTFPAVLQSSGLYSLSSVVTVPSSSLGTQTYICNVNHKPSNTKVDEKVEPKSCDKTHTCPPCPAPEAAGGPSVFLFPPKPKDTLMISRTPEVTCVVVDVSHEDPEVKFNWYVDGVEVHNAKTKPREEQYNSTYRVVSVLTVLHQDWLNGKEYKCKVSNKALGAPIEKTISKAKGQPREPQVCTLPPSRDELTKNQVSLSCAVKGFYPSDIAVEWESNGQPENNYKTTPPVLDSDGSFFLVSKLTVDKSRWQQGNVFSCSVMHEALHNHYTQKSLSLSPGK heavy 2: not shown | 127 fold | 127 fold | 0.00787 fold | 1110 fold | 1110 fold | 25.7% | –
PD1-LAG3-IL2v Q126T (P1AF7951) (bispecific antibody, human IgG1, kappa, L234A L235A) light 1: EVQLLESGGGLVQPGGSLRLSCAASGFSFSSYTMSWVRQAPGKGLEWVATISGGGRDIYYPDSVKGRFTISRDNSKNTLYLQMNSLRAEDTAVYYCVLLTGRVYFALDSWGQGTLVTVSSASVAAPSVFIFPPSDEQLKSGTASVVCLLNNFYPREAKVQWKVDNALQSGNSQESVTEQDSKDSTYSLSSTLTLSKADYEKHKVYACEVTHQGLSSPVTKSFNRGEC light 2: not shown heavy 1: EVQLLESGGGLVQPGGSLRLSCAASGFIFDDYTMNWVRQAPGKGLEWVAVISWDGGGTYYTDSVKGRFTISRDDFKNTLYLQMNSLRAEDTAVYYCAKGLTDTTLYGSDYWGQGTLVTVSSASTKGPSVFPLAPSSKSTSGGTAALGCLVEDYFPEPVTVSWNSGALTSGVHTFPAVLQSSGLYSLSSVVTVPSSSLGTQTYICNVNHKPSNTKVDEKVEPKSCDKTHTCPPCPAPEAAGGPSVFLFPPKPKDTLMISRTPEVTCVVVDVSHEDPEVKFNWYVDGVEVHNAKTKPREEQYNSTYRVVSVLTVLHQDWLNGKEYKCKVSNKALGAPIEKTISKAKGQPREPQVCTLPPSRDELTKNQVSLSCAVKGFYPSDIAVEWESNGQPENNYKTTPPVLDSDGSFFLVSKLTVDKSRWQQGNVFSCSVMHEALHNHYTQKSLSLSPGK heavy 2: not shown | 6.5 fold | 6.5 fold | 0.154 fold | 485 fold | 485 fold | 28.1% | –
anti-PD1 IgG PG LALA (P1AA6888) (antibody, V domains shown) VH: EVQLLESGGGLVQPGGSLRLSCAASGFSFSSYTMSWVRQAPGKGLEWVATISGGGRDIYYPDSVKGRFTISRDNSKNTLYLQMNSLRAEDTAVYYCVLLTGRVYFALDSWGQGTLVTVSS VL: DIVMTQSPDSLAVSLGERATINCKASESVDTSDNSFIHWYQQKPGQSPKLLIYRSSTLESGVPDRFSGSGSGTDFTLTISSLQAEDVAVYYCQQNYDVPWTFGQGTKVEIKR | – | – | – | – | – | – | 13.6%
